Reference: the supplement of paper PMC9170038

System: MS2 coat protein
Test: apparent KD of MS2 coat protein; designed switch direction (-1 OFF switch, 1 ON switch): 1; higher = weaker reporter binding
In short: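 The buffer was Tris-HCl pH 7.5 with KCl, MgCl2, BSA, DTT, tRNA and Tween-20. In it, SNAP-549-labelled MS2 coat protein was titrated in doubling steps from 0.7 or 1.5 nM to 3 µM over chip-bound RNA switches transcribed by stalled E. coli RNA polymerase on Illumina chips. Apparent KD is the per-design median over clusters of curve fits to normalised fluorescence.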

[1] = Eterna round: R95, input ligand: FMN 200 uM
[2] = Eterna round: R95, input ligand: microRNA oligo, concentration not stated
[3] = Eterna round: R95, input ligand: none
[4] = input ligand: microRNA oligo, concentration not stated

| Sequence | apparent KD of MS2 coat protein [1] [nM] | apparent KD of MS2 coat protein [2] [nM] | apparent KD of MS2 coat protein [3] [nM] | apparent KD of MS2 coat protein (input ligand: FMN 200 uM) [nM] | apparent KD of MS2 coat protein [4] [nM] | apparent KD of MS2 coat protein (input ligand: none) [nM] |
| --- | --- | --- | --- | --- | --- | --- |
| GAGAGACAUGAGGAUCACCCAUGUAGAAUAGAACAAGGAUAUGUGGAAGGCGGAGGAGAGACAGAAGGUGUAGGAA [JR_SS1_Sub054] (puzzle: Same State 1) | 62.5 | 76.8 | 84.9 | – | – | – |
| GAGAGAGGAAGCGAGGAUAUCGUGUGGAGUACAUGAGGAUCACCCAUGUUGUAGGUAGAGGUAGGCGAGAAGGCGCAGGAGAGGU [JR_SS2_Sub097] (puzzle: Same State 2) | 34 | 41.5 | 58.1 | – | – | – |
| GAGAGAGGGCGAGGAUAUUCGGUGAUAAUGAUGGAAGAAGGCGCUGACAUGAGGAUCACCCAUGUGGGAAUAAUCCAGAGAGAG [Parity 15 - Jieux - Same State NG 1] (Eterna round: R96, puzzle: Same State NG 1) | – | – | – | 494 | 130 | 237 |
| GAGGGACAGACCAACAUGAGGAUCACCCAUGUCCUCGCAGUUCAGGAUAUCUGGAGGAAGAAGAAAGAGAAGGGAAGGUGAACC [AK SSNG3-V2-35] (Eterna round: R96, puzzle: Same State NG 3) | – | – | – | 312 | 65.3 | 120 |
| GAGUAGUUGAAAGGAUAUUGAUUGUUAUAGGAUCAAGAAGGUUCUAACAUGAGGAUCACCCAUGUAGGACUAUUCCUGUGUAUC [Parity 83 - Jieux - Same State NG 1] (Eterna round: R96, puzzle: Same State NG 1) | – | – | – | 11 | 8.78 | 12.5 |
| GAGUAGUUGGGAGGAUAUCGAUUGUUAUAGAAUCGAGAAGGUCCUAACAUGAGGAUCACCCAUGUAGGACUAUUCCUGUGUAUC [Parity 75 - Jieux - Same State NG 1] (Eterna round: R96, puzzle: Same State NG 1) | – | – | – | 9.81 | 7.5 | 10.6 |
| GAGUGGCAGUUAGGAUAUAUAGUGAUAAUGACAAUAGAAGGAACAGACAUGAGGAUCACCCAUGUAGGACUAAUCCAGAGAGAG [Parity 36 - Jieux - Same State NG 1] (Eterna round: R96, puzzle: Same State NG 1) | – | – | – | 32.1 | 22.5 | 30.2 |
| GAGUGGUGGAAAGGAUAUGCAUUGUUAUUCACUGUAGAAGGUUCUAACAUGAGGAUCACCCAUGUAGGACUAUUCCUGUGUUUU [Parity 59 - Jieux - Same State NG 1] (Eterna round: R96, puzzle: Same State NG 1) | – | – | – | – | 10.2 | – |
| GAGUGUGAAUAAGGAUAUAUGAGAGAGUGAGUAAUAGAAGGUAUACAAACAUGAGACAUGAGGAUCACCCAUGUAUCACCCAUG [Something that seems to work] (Eterna round: R96, puzzle: Same State NG 1) | – | – | – | – | 14.5 | – |
| GAUCGUUUGAUAGGAUAUCGCUAUACAUGAGGAUCACCCAUGUUUACCACGCUGGUUUUUCGUACCGAGAAGGAUUCUGAUGAU [JL JR sub007 mod 5] (Eterna round: R96, puzzle: Same State NG 2) | – | – | – | 31.4 | 24.4 | 35.4 |
| GCAACUCGUAGAGGAUAUGUCCAGCAAGUAUCACAUGAGGAUCACCCAUGUUCAGCUCUACACCUGCAGAAGGCUAUUAGUGCA [Eternabot solution 46] (Eterna round: R96, puzzle: Same State NG 2) | – | – | – | 15.8 | 13.6 | 17.2 |
| GCACUCCUAGGAGCUGCGACAUGAGGAUCACCCAUGUAAUCACAGGAUAUGCGAGUCCGAAUUUUGCAGAAGGGUGAUAAGAAC [Biesanarre] (Eterna round: R96, puzzle: Same State NG 3) | – | – | – | 404 | 52.3 | 45.7 |
| GCAGAACAUGAGGAUCACCCAUGUCUCAAAUAUUGAGGAUAUGGACACGGUAUAUCCGAACCAGAAGGCGAACUGC [SS1 Teenbexe 18] (puzzle: Same State 1) | 66.1 | 74.3 | 53.3 | – | – | – |
| GCAGUACAUGAGGAUCACCCAUGUCUCUAAAGUCGAGGAUAUGGGCAGGUUAUAUCCGAACCAGAAGGCGAGCUGC [SS1 Teenbexe 12] (puzzle: Same State 1) | 81.5 | 301 | 339 | – | – | – |
| GCAGUGGCGGUAGGAUAUCUAGGAUAUGGGAAAGACUAAGUCUGUAGGUCACCUAACCCAGAAGGAGAGAAGGACCCUGUAAGG [pwkr ssNG2 2FMN + F9.21] (Eterna round: R96, puzzle: Same State NG 2) | – | – | – | 348 | 74.7 | 222 |
| GCCAACUCAUGAGGAUAUGGCACCUUAAUGGUGCCAGAAGGCAUGUCUAUUGACAUGAGGAUCACCCAUGUAUUAUUGUUGGCA [Fiskers NG1ss - 25] (Eterna round: R96, puzzle: Same State NG 1) | – | – | – | 100 | 241 | 821 |

| Sequence | apparent KD of MS2 coat protein [1] [nM] | apparent KD of MS2 coat protein [2] [nM] | apparent KD of MS2 coat protein [3] [nM] | apparent KD of MS2 coat protein (input ligand: FMN 200 uM) [nM] | apparent KD of MS2 coat protein [4] [nM] | apparent KD of MS2 coat protein (input ligand: none) [nM] |
| --- | --- | --- | --- | --- | --- | --- |
| GCCGCACAUGAGGAUCACCCAUGUAAUUACAUGGGAGGAUAUCAGUGCUCGAAAGAGCACUGAGAAGGCCUGUGGC [SS1 - Omei A v2] (puzzle: Same State 1) | 399 | 31.9 | 39 | – | – | – |
| GCCGCGUUUCGCGCCUACAUGAGGAUCACCCAUGUAUGUCGGCAGGAUAUCGUUUGCUUUGCAAACGAGAAGGGCUGUUGUGGC [salish99_SSNG3_R04_011] (Eterna round: R96, puzzle: Same State NG 3) | – | – | – | 13.4 | 9.04 | 14.4 |
| GCCGCGUUUCGCGCCUACAUGAGGAUCACCCAUGUUUGUAGGCAGGAUAUCGCUCGCUUUGCGGGCGAGAAGGGCUGUUGUGGC [salish99_SSNG3_R04_019] (Eterna round: R96, puzzle: Same State NG 3) | – | – | – | 45.8 | 41.8 | 54.4 |
| GCCGUAUACAUGAGGAUCACCCAUGUUGACGCGAGAGUGGAUGAGGAUAUCGAUGGGUUUCCCGUCGAGAAGGCGUGGGUCGGC [JL SSNG3 3.00] (Eterna round: R96, puzzle: Same State NG 3) | – | – | – | 49.8 | 30.5 | 46.1 |
| GCGAAACAUGAGGAUCACCCAUGUAUGGCGGGCACAGGAUAUCGUGGUUCGCUCAUACUACGAGAAGGGUGAAAAG [Orqu] (puzzle: Same State 1) | 24.1 | 18.4 | 16.9 | – | – | – |
| GCGAAAGCGGUAGGAUAUCUAGGAUAUGGGAAAGACUAAGUCUGUAGGUCACCUAACCCAGAAGGAGAGAAGGACAGGGAAACC [pwkr ssNG2 2FMN + F9.34] (Eterna round: R96, puzzle: Same State NG 2) | – | – | – | 38.8 | 28.9 | 22.1 |
| GCGAAAUGAUGAAACAUGAGGAUCACCCAUGUAACGAGAGAUGAGGAUAUCGGAAAGGGAGGAACCGAGAAGGCAUGGUCACGC [AK SSNG3-V2-26.1] (Eterna round: R96, puzzle: Same State NG 3) | – | – | – | 34.5 | 37.1 | 48.2 |
| GCGAGCGUACUUGCAACAUGAGGAUCACCCAUGUUAACUGGACAGGAUAUGGUACCGUUUCGGUACCAGAAGGGUUCACUCAUG [JL SSNG3 3.59] (Eterna round: R96, puzzle: Same State NG 3) | – | – | – | – | 64.2 | – |
| GCGAGCGUACUUGCAGACAUGAGGAUCACCCAUGUAAAUGGGAAGGAUAUGGUACCGUUUCGGUACCAGAAGGUCCUAAGUGAG [JL SSNG3 1.49] (Eterna round: R96, puzzle: Same State NG 3) | – | – | – | 129 | 702 | 646 |
| GCGAGCGUACUUGCUACAUGAGGAUCACCCAUGUUAACUGGACAGGAUAUGGUACCGUUUCGGUACCAGAAGGGUUCAUCAUGU [JL SSNG3 3.68] (Eterna round: R96, puzzle: Same State NG 3) | – | – | – | 306 | 245 | 665 |
| GCGAGCGUACUUGCUACAUGAGGAUCACCCAUGUUUAUUGGACAGGAUAUGGUACCGUUUCGGUACCAGAAGGGUCCACAUGUG [JL SSNG3 3.86] (Eterna round: R96, puzzle: Same State NG 3) | – | – | – | 106 | 182 | 289 |
| GCGAGGAUAUGCAGAGGAUCACCCUGUAGAAGGCGCAAAAGCGAGGAUAUGCAGAGGAUCACCCUGUAGAAGGCGCACUACUCU [pwkr ssNG3 DX 2xF5 +2xFMN.4] (Eterna round: R96, puzzle: Same State NG 3) | – | – | – | 153 | 161 | 221 |
| GCGAUAUGAUGCUACAUGAGGAUCACCCAUGUAGCGACAGCUAAGGAUAUUGGAAAGGGAGGAGACGAGAAGGUAGGGUCACGC [AK SSNG3-V2-24.1] (Eterna round: R96, puzzle: Same State NG 3) | – | – | – | 11.5 | 11.6 | 17.2 |
| GCGCAGCUGCGCAAUAUUACAUGAGGAUCACCCAUGUUGUCACAGGAUAUGCUGGACAGCGUCGAGCAGAAGGGUGACCAAACA [Zasovexe] (Eterna round: R96, puzzle: Same State NG 3) | – | – | – | 191 | 97.2 | 300 |
| GCGGAACAUGAGGAUCACCCAUGUAAAGGGUGUAAAGGAUAUUAUUGGGAGAAGGUAGGGUAAGAAGGUUGCUUGG [JR_SS1_Sub088] (Eterna round: R96, puzzle: Same State 1) | – | – | – | – | 432 | – |
